# According to PMC6899989:
# Experiments:
# [1] = target: N-terminal His6-tagged RpPpsR2 (gene repressor from Rhodopseudomonas palustris) (Rhodopseudomonas palustris); assay: SEC; RpPpsR2 in 5 mM DTT
# [2] = target: RpBphP1, sample used for size exclusion chromatography (synthesised gene) (Rhodopseudomonas palustris); assay: SEC; Superose 12 10/300 GL, 200 μL at 1-4 mg/mL, 5 mM TrisHCl pH 8, 10 mM NaCl; in the dark (Pfr state)
# [3] = target: RpBphP1, sample used for size exclusion chromatography (synthesised gene) (Rhodopseudomonas palustris); assay: SEC; Superose 12 10/300 GL, 200 μL at 1-4 mg/mL, 5 mM TrisHCl pH 8, 10 mM NaCl; after illumination with 760 nm light for 5 min (Pr state)
# [4] = target: full-length RpBphP1, SAXS sample (gene PCR amplified from Rps. palustris strain 2.1.6, in pET28a) (Rhodopseudomonas palustris); assay: SAXS; 5 mM Tris pH 8, 1 and 4 mg/mL, 8 °C; continuous illumination with 760 nm light (Pr state); mass by SAXS MoW2, ab-initio envelopes
# [5] = target: full-length RpBphP1, SAXS sample (gene PCR amplified from Rps. palustris strain 2.1.6, in pET28a) (Rhodopseudomonas palustris); assay: SAXS; 5 mM Tris pH 8, 1 and 4 mg/mL, 8 °C; dark-purified protein measured in darkness (Pfr state); mass by SAXS MoW2, ab-initio envelopes
# [6] = target: N-terminal His6-tagged RpPpsR2 (gene repressor from Rhodopseudomonas palustris) (Rhodopseudomonas palustris); assay: pull-down; Ni(II)-affinity chromatography on 1 mL His-Trap HP; His6-RpPpsR2 mixed 1:4 with untagged RpBphP1 or RpBphP1ΔHOS; illuminated for 5 min with 760 nm light (Pr state); imidazole elution monitored at 280 and 400 nm; SDS/PAGE scan of peak BP
substance,measurement,setting,value
N-terminal His6-tagged RpPpsR2 (gene repressor from Rhodopseudomonas palustris) (natural protein),stoichiometry N,[1],2
"RpBphP1, sample used for size exclusion chromatography (synthesised gene) (natural protein)",stoichiometry N,[2],2
same,stoichiometry N,[3],2
"full-length RpBphP1, SAXS sample (gene PCR amplified from Rps. palustris strain 2.1.6, in pET28a) (natural protein)",stoichiometry N,[4],2
same,stoichiometry N,[5],2
untagged full-length RpBphP1 (bacteriophytochrome from Rhodopseudomonas palustris) (natural protein),stoichiometry N (RpBphP1 per RpPpsR2),[6],2
